Common to all, as to settings: protein: recombinant; tags: untagged; copies: 1;1;1
Data set [1] has as its target T1, RPA heterotrimer (RPA1-RPA2-RPA3), WT (Homo sapiens, UniProt P27694;P15927;P35244 1-616;1-270;1-121). Description: fluorescence microscopy, co-partitioning into RPA droplets; equimolar; co-assembly, indirect evidence of binding; Droplet assay buffer and temperature not in material; protein stored in diluted Sorensen phosphate buffer (43.4 mM Na2HPO4, 6.6 mM KH2PO4) pH 7.6, 150 mM KCl, 25 uM EDTA, 1 mM DTT.

Data set [2] has as its target T1, RPA heterotrimer (RPA1-RPA2-RPA3), WT. Description: fluorescence microscopy, co-partitioning into RPA droplets; equimolar; not enriched in droplets; Droplet assay buffer and temperature not in material; protein stored in diluted Sorensen phosphate buffer (43.4 mM Na2HPO4, 6.6 mM KH2PO4) pH 7.6, 150 mM KCl, 25 uM EDTA, 1 mM DTT.
Data set [3] has the same target. Description: fluorescence microscopy, co-partitioning into RPA droplets; equimolar; Droplet assay buffer and temperature not in material; protein stored in diluted Sorensen phosphate buffer (43.4 mM Na2HPO4, 6.6 mM KH2PO4) pH 7.6, 150 mM KCl, 25 uM EDTA, 1 mM DTT.

T1 sequence (P27694 whole entry, chain 1 of 3): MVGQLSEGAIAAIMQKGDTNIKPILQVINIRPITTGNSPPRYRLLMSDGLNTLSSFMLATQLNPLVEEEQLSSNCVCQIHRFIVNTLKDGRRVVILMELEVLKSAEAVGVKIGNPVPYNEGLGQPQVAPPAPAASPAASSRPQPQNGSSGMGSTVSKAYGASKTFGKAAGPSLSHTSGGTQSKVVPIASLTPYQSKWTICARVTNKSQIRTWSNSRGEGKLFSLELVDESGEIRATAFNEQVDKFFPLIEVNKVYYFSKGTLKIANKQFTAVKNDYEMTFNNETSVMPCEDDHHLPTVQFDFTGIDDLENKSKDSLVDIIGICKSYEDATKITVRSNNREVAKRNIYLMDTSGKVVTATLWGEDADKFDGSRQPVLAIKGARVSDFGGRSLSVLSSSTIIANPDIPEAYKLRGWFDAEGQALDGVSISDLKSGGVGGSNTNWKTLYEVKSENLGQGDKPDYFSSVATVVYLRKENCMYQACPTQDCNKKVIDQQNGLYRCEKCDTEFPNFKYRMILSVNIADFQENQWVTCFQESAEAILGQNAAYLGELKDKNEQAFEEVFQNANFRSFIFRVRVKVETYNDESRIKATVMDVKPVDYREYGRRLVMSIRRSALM
T1 sequence (P15927 whole entry, chain 2 of 3): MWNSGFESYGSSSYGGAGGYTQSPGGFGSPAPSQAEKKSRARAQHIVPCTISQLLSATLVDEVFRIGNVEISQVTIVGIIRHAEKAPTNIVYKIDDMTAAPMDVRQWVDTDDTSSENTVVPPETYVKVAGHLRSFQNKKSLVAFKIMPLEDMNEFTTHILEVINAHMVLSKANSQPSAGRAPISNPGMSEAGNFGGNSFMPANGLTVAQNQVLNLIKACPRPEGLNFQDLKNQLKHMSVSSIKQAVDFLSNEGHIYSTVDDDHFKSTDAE
T1 sequence (P35244 whole entry, chain 3 of 3): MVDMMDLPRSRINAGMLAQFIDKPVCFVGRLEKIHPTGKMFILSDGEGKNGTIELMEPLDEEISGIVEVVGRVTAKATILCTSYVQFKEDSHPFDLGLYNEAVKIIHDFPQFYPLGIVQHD

B1: FAM-17nt ssDNA (ssDNA)
DNA: AATTGTTATCCGCTCAC
As to B1, the binding result in data set [1] is “binds”.

B2: Cy3-40nt ssRNA (ssRNA)
RNA: AGUCGUCGCUGCCAUAGCUUUCGAAUCCACUGUUCCACAU
As to B2, the binding result in data set [2] is listed as “no binding”.

B3: Cy3-40nt ssDNA (ssDNA)
DNA: ATGTGGAACAGTGGATTCGAAAGCTATGGCAGCGACGACT
With B3, in data set [3], the binding result is recorded as “binds”.

B4: FAM-40nt ssDNA (ssDNA)
DNA: ATGTGGAACAGTGGATTCGAAAGCTATGGCAGCGACGACT
B4: the binding result in data set [3] was “binds”.

These data come from paper PMC10113159.
